The assay has as its target CV1, an engineered high-affinity membrane receptor for CD47. Nature of the assay: flow cytometry; HEK 293T cells with light-induced CV1 incubated with biotinylated CD47, detected by streptavidin-PE.

In turn, “Biotinylated CD47 protein (from UniProt Q08722 19-135) (ligand)” came in with a percent of engineered cells stained with CD47 greater than 80%.
